Source: patent US20250346683A1 (AstraZeneca / MedImmune, published 2025)

Biological target: T1, human endothelial lipase (EL) (human, UniProt Q9Y5X9 21-500)
T1 construct: also called human EL; LIPG gene product
T1 sequence (looked up): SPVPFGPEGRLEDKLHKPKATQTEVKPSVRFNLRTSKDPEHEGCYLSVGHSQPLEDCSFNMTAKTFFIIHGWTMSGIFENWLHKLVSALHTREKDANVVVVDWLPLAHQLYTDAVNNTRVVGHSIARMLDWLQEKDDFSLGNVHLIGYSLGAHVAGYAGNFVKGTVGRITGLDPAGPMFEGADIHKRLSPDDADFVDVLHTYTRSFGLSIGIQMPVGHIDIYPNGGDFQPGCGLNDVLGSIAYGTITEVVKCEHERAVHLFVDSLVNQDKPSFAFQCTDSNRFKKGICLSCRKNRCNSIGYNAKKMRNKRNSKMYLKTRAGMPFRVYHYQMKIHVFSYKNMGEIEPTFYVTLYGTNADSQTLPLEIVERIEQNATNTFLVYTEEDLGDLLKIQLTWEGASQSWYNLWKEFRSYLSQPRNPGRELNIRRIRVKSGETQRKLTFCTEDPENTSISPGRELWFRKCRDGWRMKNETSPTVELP
Assay: sandwich ECL immunoassay (MSD): MEDI5884 coated as capture, EL from plasma or reference standard as analyte, biotinylated anti-human EL antibody (OriGene) as detection
Description: Sandwich immunoassay was developed for the detection human EL utilizing ECL readout. An MSD (MesoScale Discovery) plate was coated with 5 μg/ml of MEDI5884, at 50 μl/well, incubated at 4° C. on a flat surface and subsequently washed 3× with 300 μl/well of ELISA Wash Buffer. The assay plate(s) were blocked with 150 μl/well of I Block Buffer (IBB) for ≥60 min on an orbital plate shaker at room temperature (RT). Reference standards (RS), quality control (QC) and negative control (NC), prepared in IBB, and test samples were added to the plates at 35 μl/well. Samples that had been previously tested determined the minimally required dilution ratio (MRD) as two (2) for plasma samples. The assay plate(s) were incubated at RT on a plate shaker with gentle shaking for 60 minutes±10 minutes. Unbound analyte was removed by washing the plate(s) with ELISA wash buffer. To detect the captured analyte, 1 μg/ml of biotinylated anti-human EL monoclonal antibody (OriGene) was added at 35 μl/well and incubated for an additional 60 minutes±10 minutes at RT on a plate shaker. Unbound detection antibody was removed by washing the plate(s). […] Plates were washed again and Read Buffer was added at 150 μl/well. Signal was read on a MSD sector imager instrument within 20 minutes of addition of the Read Buffer. […]

B1: MEDI5884 (antibody, human IgG4 S228P, kappa, V domains shown)
VH: QVQLVQSGSELKKPGASVKVSCKASGYTFTNYALNWVRQAPGQGLEWMGWINTYSGVGTYAGEFKGRFVFSLDTSVSTAYLQISSLKAEDTAVYYCARRGFYGRRFFDVWGKGTTVTVSS
VL: DIQLTQSPSSLSASVGDRVTITCKASQSVDYDVDSYMHWYQQKPGKAPKLLIYAASNLASGVPSRFSGSGSGTDFTFTISSLQPEDIATYYCQQTIEDPPTFGGGTKVEIKR
notes: It was coated on the MSD plate as the capture reagent
  binding result: binds
